Test results from publication PMC4861432, “Naturally Occurring Isoleucyl-tRNA Synthetase without tRNA-dependent Pre-transfer Editing” (The Journal of Biological Chemistry, 2016).

What was measured:
ScIleRS = biological target: T1, ScIleRS (Saccharomyces cerevisiae, UniProt P09436); test: ATP-PPi exchange inhibition, global fit; assay type: biochemical
T1 construct: gene ILS1; pET28b, E. coli Rosetta(DE3), Ni-NTA (His tag) and size-exclusion chromatography, monomer
T1 sequence (P09436 1-1072): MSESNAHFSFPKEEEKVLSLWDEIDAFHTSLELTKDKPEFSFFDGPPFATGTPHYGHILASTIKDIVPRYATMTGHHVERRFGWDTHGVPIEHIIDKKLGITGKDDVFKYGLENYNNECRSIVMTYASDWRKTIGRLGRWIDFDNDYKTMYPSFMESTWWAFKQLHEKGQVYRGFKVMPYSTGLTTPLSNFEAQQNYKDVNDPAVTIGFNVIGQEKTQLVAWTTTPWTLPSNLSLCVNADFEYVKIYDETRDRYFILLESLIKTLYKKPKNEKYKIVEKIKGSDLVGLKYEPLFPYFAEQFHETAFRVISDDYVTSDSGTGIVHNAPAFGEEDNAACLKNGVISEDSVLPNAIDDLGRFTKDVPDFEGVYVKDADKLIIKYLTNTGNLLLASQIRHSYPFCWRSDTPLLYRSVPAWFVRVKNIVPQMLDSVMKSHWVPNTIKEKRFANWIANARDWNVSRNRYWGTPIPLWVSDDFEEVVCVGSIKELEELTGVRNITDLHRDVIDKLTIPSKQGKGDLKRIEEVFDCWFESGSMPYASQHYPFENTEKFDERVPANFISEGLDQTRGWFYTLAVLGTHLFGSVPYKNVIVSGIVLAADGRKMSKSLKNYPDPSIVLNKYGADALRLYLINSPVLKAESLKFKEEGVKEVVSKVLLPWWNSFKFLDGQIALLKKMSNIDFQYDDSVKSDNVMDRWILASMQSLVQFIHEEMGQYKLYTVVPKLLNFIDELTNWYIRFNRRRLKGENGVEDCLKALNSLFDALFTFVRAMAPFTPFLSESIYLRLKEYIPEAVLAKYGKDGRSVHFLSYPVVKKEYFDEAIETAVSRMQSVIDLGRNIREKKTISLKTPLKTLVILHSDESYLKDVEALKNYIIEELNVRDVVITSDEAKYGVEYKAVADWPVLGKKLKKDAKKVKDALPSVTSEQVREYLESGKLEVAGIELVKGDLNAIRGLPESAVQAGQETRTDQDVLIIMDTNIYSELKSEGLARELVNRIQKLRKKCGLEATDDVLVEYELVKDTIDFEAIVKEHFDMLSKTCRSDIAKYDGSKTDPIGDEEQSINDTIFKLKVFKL

SgIleRS = biological target: T2, SgIleRS (Streptomyces griseus, UniProt B1W0J8); test: ATP-PPi exchange inhibition, global fit; assay type: biochemical
T2 construct: gene ileS; ileS from genomic DNA in pET28b, E. coli BL21(DE3), Ni-NTA purified (His tag), ZnCl2 added during growth
T2 sequence (B1W0J8 1-1047): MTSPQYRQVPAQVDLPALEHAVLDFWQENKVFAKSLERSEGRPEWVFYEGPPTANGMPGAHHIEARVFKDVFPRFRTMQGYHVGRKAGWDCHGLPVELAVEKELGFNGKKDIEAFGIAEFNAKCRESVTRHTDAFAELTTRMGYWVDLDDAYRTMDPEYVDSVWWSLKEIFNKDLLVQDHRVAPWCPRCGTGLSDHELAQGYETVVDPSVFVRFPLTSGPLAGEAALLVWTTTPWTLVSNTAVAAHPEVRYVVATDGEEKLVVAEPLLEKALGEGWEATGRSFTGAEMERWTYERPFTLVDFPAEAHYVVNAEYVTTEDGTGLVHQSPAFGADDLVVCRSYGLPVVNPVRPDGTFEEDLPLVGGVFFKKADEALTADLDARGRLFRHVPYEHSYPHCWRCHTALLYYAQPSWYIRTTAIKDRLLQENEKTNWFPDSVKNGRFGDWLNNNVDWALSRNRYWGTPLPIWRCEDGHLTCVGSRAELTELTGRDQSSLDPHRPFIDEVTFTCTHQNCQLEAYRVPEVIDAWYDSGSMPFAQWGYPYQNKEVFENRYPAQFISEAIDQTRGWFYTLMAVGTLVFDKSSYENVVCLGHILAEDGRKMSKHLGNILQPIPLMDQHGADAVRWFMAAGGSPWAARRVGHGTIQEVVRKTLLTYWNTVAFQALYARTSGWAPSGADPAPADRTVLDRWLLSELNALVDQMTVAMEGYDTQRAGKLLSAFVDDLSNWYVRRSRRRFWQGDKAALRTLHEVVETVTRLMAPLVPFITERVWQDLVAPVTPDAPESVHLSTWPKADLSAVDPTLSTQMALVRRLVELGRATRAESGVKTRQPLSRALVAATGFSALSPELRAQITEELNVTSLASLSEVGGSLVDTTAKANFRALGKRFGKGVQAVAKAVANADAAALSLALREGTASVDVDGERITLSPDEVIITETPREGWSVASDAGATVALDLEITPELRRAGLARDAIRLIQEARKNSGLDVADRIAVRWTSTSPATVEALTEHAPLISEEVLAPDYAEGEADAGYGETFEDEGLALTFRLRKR

[1] = substrate: CC(C)[C@H](N)C(=O)O; test: ATP-PPi exchange (amino acid activation); assay type: biochemical, Streptomyces griseus; settings: 30 °C, pH 7.5, 4 mM ATP, 1 mM PPi, 20 mM MgCl2, no tRNA
Excerpt: (§1) ATP-PPi exchange (amino acid activation) on SgIleRS

[2] = substrate: CC[C@H](C)[C@H](N)C(=O)O; test: ATP-PPi exchange (amino acid activation); assay type: biochemical, Streptomyces griseus; settings: 30 °C, pH 7.5, 4 mM ATP, 1 mM PPi, 20 mM MgCl2, no tRNA
Excerpt: as §1

[3] = substrate: CC(C)[C@H](N)C(=O)O; test: ATP-PPi exchange (amino acid activation); assay type: biochemical, Saccharomyces cerevisiae; settings: 30 °C, pH 7.5, 4 mM ATP, 1 mM PPi, 20 mM MgCl2, no tRNA
Excerpt: (§2) ATP-PPi exchange (amino acid activation) on ScIleRS

[4] = substrate: CC[C@H](C)[C@H](N)C(=O)O; test: ATP-PPi exchange (amino acid activation); assay type: biochemical, Saccharomyces cerevisiae; settings: 30 °C, pH 7.5, 4 mM ATP, 1 mM PPi, 20 mM MgCl2, no tRNA
Excerpt: as §2

For `C/C(=C\C(=O)OCCCCCCCCC(=O)O)C[C@@H]1OC[C@H](C[C@@H]2O[C@H]2[C@@H](C)[C@H](C)O)[C@@H](O)[C@H]1O` [mupirocin], the Ki (ScIleRS) was 0.028 mM and the Ki (SgIleRS) was 10 mM.

B1: SgIleRS (Streptomyces griseus subsp. griseus NBRC 13350) (protein)
chain: T2 sequence (B1W0J8 1-1047)
notes: ileS from genomic DNA in pET28b, E. coli BL21(DE3), Ni-NTA purified (His tag), ZnCl2 added during growth
B1 was tested, and the kcat [1] was 19.3 ± 0.4 s⁻¹ and the kcat [2] was 20.6 ± 1.4 s⁻¹.

B2: ScIleRS (Saccharomyces cerevisiae S288C) (protein)
chain: T1 sequence (P09436 1-1072)
notes: pET28b, E. coli Rosetta(DE3), Ni-NTA (His tag) and size-exclusion chromatography, monomer
In the case of B2, the kcat [3] is reported as 8.6 ± 1 s⁻¹ and the kcat [4] is reported as 11.4 ± 0.8 s⁻¹.
